How the values were obtained:
[1] = system: RAR/RXR endogenous retinoic acid receptors (Mus musculus); assay: cell_activity; settings: P19 cells, 10^-7 M retinoic acid; 0.49 without retinoic acid; 61.95 with 100 uM KLGFFKR
[2] = target: Androgen receptor DNA-binding domain (Rattus norvegicus, UniProt P15207 P15207:541-614); assay: EMSA; settings: tags: GST fusion (pGEX-3X); label: 32P
Description: As described in Rennie et al., 1993, DNA binding domain of recombinant rat androgen receptor was prepared as a GST-fusion protein using the pGEX-3X vector and purified by glutathione-agarose affinity chromatography. p60 (calreticulin) was purified by affinity chromatography on KLGFFKR-sepharose, followed by gel electrophoresis as described in detail in Rojiani et al., 1991. […] Recombinant calreticulin (GST-fusion protein) was prepared as described by Baksh and Michalak, 1991. Gel retardation assays were carried out as described by Rennie et al., 1993. To analyze the effect of p60, or recombinant calreticulin, on receptor-DNA binding activity, the AR was pre-incubated with p60 for 30 min at 4° C. To analyze the effects of synthetic peptides, anti-calreticulin antibody, and non-immune IgG on p60 inhibition of AR-ARE binding, the peptide, antibody or IgG were pre-incubated with p60 for 30 min at 4° C. The androgen receptor preparation was then added to these mixtures and further incubated for 30 min at 4° C.
Affinity purified DNA binding domain of the recombinant rat androgen receptor (AR) was pre-incubated with or without the indicated concentrations of purified p60 at 4° C. for 30 min. After this pre-incubation the reaction mixtures were incubated with ³²P-labeled 26 base pair ARE (Rennie et al., 1993) (androgen response element), and analyzed by gel retardation assay. […]

Sequence of Androgen receptor DNA-binding domain (P15207 541-614, one chain of several): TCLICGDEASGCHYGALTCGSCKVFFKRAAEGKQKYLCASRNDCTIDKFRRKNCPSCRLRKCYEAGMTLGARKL

Molecule “bRARE (RAR-beta upstream 32 bp RARE, luciferase reporter)” has an activity (corrected luc/bgal) [1] of 25.7.

B1: ARE, rat probasin promoter -115 to -140 (dsDNA)
DNA 1: GTAAAGTACTCCAAGAACCTATTTGT
DNA 2: ACAAATAGGTTCTTGGAGTACTTTAC
B1: binds [2].

— US20030060613, “Novel use of calreticulin in modulating hormone responsiveness and new pharmaceuticals for treating cancer, osteoporosis and chronic inflammatory disease” (published 2003)
